Paper PMC10786891, “Massively parallel profiling of RNA-targeting CRISPR-Cas13d”
Positions count from the first letter of the chain named. Names and notes keep the numbering of the source.

T1: EsCas13d, nuclease-dead (Eubacterium siraeum, UniProt B0MS50, R295A;H300A;R849A;H854A)
T1 sequence: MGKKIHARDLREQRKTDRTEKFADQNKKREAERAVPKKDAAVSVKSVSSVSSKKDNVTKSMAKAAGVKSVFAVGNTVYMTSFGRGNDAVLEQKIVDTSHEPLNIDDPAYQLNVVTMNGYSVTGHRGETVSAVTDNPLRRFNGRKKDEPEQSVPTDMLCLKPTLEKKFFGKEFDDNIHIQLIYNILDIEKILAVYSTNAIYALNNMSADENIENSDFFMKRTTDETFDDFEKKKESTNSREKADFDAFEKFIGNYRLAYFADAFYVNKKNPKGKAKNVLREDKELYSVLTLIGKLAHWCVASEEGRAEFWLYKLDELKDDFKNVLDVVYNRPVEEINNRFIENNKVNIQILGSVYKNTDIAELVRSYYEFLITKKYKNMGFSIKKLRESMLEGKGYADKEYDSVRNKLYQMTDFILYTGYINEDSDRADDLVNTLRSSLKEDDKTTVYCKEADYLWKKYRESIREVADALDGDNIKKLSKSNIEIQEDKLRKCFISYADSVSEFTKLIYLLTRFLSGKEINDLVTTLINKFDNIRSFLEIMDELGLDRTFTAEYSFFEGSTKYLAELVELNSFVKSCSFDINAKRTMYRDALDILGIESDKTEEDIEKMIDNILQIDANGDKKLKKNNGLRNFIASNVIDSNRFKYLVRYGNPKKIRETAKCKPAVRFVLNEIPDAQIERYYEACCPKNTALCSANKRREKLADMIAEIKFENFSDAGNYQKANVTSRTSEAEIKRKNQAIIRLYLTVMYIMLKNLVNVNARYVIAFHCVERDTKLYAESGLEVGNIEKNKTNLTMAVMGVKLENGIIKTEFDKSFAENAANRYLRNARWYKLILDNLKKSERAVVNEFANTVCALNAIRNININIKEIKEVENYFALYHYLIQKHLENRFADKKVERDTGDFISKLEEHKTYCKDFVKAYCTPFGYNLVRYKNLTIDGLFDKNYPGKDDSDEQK

B1: target 3 G4U,U8A (mixed)
RNA 1: CACCCGUGCAAAAUUGCAGGGGUCUAAAACGACCUGAAUAUUUCAGAUCAAA
RNA 2: GGGAAUGGAUCCACAUCUACGAAUUCGUUUUUGAUCUGAAAUAAUCAUGUCUGCAGAUCGGAAGAGCACACGU
B2: target 3 G4U,A11G (mixed)
RNA 1: B1 RNA 1
RNA 2: B1 RNA 2 with A41G, A44U
B3: target 3 insC 3' of 9,insA 3' of 7 (mixed)
RNA 1: B1 RNA 1
RNA 2: GGGAAUGGAUCCACAUCUACGAAUUCGUUUUUGAUCUGAAAUACUUACAGGUCUGCAGAUCGGAAGAGCACACGU
B4: target 3 G3U,C6U (mixed)
RNA 1: B1 RNA 1
RNA 2: B1 RNA 2 with A44U, C46U, U48G, G49U
B5: target 3 insU 3' of 22,insG 3' of 2 (mixed)
RNA 1: B1 RNA 1
RNA 2: GGGAAUGGAUCCACAUCUACGAAUUCGUUUUUUGAUCUGAAAUAUUCAGGUGCUGCAGAUCGGAAGAGCACACGU
B6: target 3 U2A,C16U (mixed)
RNA 1: B1 RNA 1
RNA 2: B1 RNA 2 with C36U, A44U, U48G, U50A
B7: target 3 C6G,U22A (mixed)
RNA 1: B1 RNA 1
RNA 2: B1 RNA 2 with U30A, A44U, C46G, U48G
B8: target 3 A12G,A18G (mixed)
RNA 1: B1 RNA 1
RNA 2: B1 RNA 2 with A34G, A40G, A44U, U48G
B9: target 3 G4A,U7A (mixed)
RNA 1: B1 RNA 1
RNA 2: B1 RNA 2 with A44U, U45A, U48A
B10: target 3 insA 3' of 22,insC 3' of 20 (mixed)
RNA 1: B1 RNA 1
RNA 2: GGGAAUGGAUCCACAUCUACGAAUUCGUUUAUUCGAUCUGAAAUAUUCAGGUCUGCAGAUCGGAAGAGCACACGU
B11: target 3 U2G,G4U (mixed)
RNA 1: B1 RNA 1
RNA 2: B1 RNA 2 with A44U, U50G
B12: target 3 insC 3' of 13,insC 3' of 3 (mixed)
RNA 1: B1 RNA 1
RNA 2: B3 RNA 2 with A40C, U42A, A43U, C44A, A47C, C48A, A49G, G51C
B13: target 3 U2A,U7A (mixed)
RNA 1: B1 RNA 1
RNA 2: B1 RNA 2 with A44U, U45A, U48G, U50A
B14: target 3 U2G,A12U (mixed)
RNA 1: B1 RNA 1
RNA 2: B1 RNA 2 with A40U, A44U, U48G, U50G
B15: target 3 insC 3' of 5,insC 3' of 5 (mixed)
RNA 1: B1 RNA 1
RNA 2: B3 RNA 2 with C44U, U46C, A49C
B16: target 3 U7A,U8G (mixed)
RNA 1: B1 RNA 1
RNA 2: B1 RNA 2 with A44G, U45A, U48G
B17: target 3 insG 3' of 5 (mixed)
RNA 1: B1 RNA 1
RNA 2: GGGAAUGGAUCCACAUCUACGAAUUCGUUUUUGAUCUGAAAUAUUCAGGGUCUGCAGAUCGGAAGAGCACACGU
B18: target 3 G4C,U22G (mixed)
RNA 1: B1 RNA 1
RNA 2: B1 RNA 2 with U30G, A44U, U48C
B19: target 3 insG 3' of 7,insU 3' of 3 (mixed)
RNA 1: B1 RNA 1
RNA 2: B3 RNA 2 with C44U, U46G, A47C, C48A, A49G, G51U
B20: target 3 G3U,C6A (mixed)
RNA 1: B1 RNA 1
RNA 2: B1 RNA 2 with A44U, C46A, U48G, G49U
B21: target 3 A11C,A18G (mixed)
RNA 1: B1 RNA 1
RNA 2: B1 RNA 2 with A34G, A41C, A44U, U48G
B22: target 3 insG 3' of 7,insU 3' of 4 (mixed)
RNA 1: B1 RNA 1
RNA 2: B3 RNA 2 with C44U, U46G, A47C, C48A, A49G, G50U
B23: target 3 C6G,U8C (mixed)
RNA 1: B1 RNA 1
RNA 2: B1 RNA 2 with A44C, C46G, U48G
B24: target 3 C6U,A12U (mixed)
RNA 1: B1 RNA 1
RNA 2: B1 RNA 2 with A40U, A44U, C46U, U48G
B25: target 3 G4U,A5G (mixed)
RNA 1: B1 RNA 1
RNA 2: B1 RNA 2 with A44U, A47G
B26: target 3 del2,del6 (mixed)
RNA 1: B1 RNA 1
RNA 2: GGGAAUGGAUCCACAUCUACGAAUUCGUUUUUGAUCUGAAAUAUUAGGCUGCAGAUCGGAAGAGCACACGU
B27: target 3 insG 3' of 6,insG 3' of 2 (mixed)
RNA 1: B1 RNA 1
RNA 2: B3 RNA 2 with C44U, U46C, A47G, C48A, A49G, G51U, U52G
B28: target 3 U7C,U22C (mixed)
RNA 1: B1 RNA 1
RNA 2: B1 RNA 2 with U30C, A44U, U45C, U48G
B29: target 3 insG 3' of 9,insU 3' of 5 (mixed)
RNA 1: B1 RNA 1
RNA 2: B3 RNA 2 with C44G, A47C, C48A, A49U
B30: target 1 insA 3' of 5,insA 3' of 2 (mixed)
RNA 1: CACCCGUGCAAAAAUGCAGGGGUCUAAAACUGAGCGGAUAACCUCUCUAUGG
RNA 2: GGGAAUGGAUCCACAUCUACGAAUUCGUACCAUAGAGAGGUUAUCCGACUCAACCGAGAUCGGAAGAGCACACGU
B31: target 1 insA 3' of 5,insC 3' of 1 (mixed)
RNA 1: B30 RNA 1
RNA 2: B30 RNA 2 with A53C
B32: target 1 insU 3' of 21,insC 3' of 5 (mixed)
RNA 1: B30 RNA 1
RNA 2: GGGAAUGGAUCCACAUCUACGAAUUCGUACCUAUAGAGAGGUUAUCCGCCUCACCGAGAUCGGAAGAGCACACGU

Each binder was assayed against T1, EsCas13d, nuclease-dead (assay: crRNA (strand 1, pre-loaded); Mg2+; 40 mM Tris-HCl pH 7.5, 150 mM NaCl, 6 mM MgCl2, 1 mM DTT, 0.1% Tween-20, 0.2 mg/ml BSA; 25 C; 10 min per concentration, then washed). Conditions: tags: His6-TwinStrep-SUMO cleaved; N-terminal SNAP kept (SNAP-Surface 488); label: 3' end held by stalled T7 RNA polymerase.

Binder | Kd
B1 | 30.2 ± 3.9 nM
B2 | 43.5 ± 8 nM
B3 | 60.5 ± 12.5 nM
B4 | 19.2 ± 1.95 nM
B5 | 32.2 ± 3.15 nM
B6 | 45.2 ± 8.25 nM
B7 | 26.2 ± 3.5 nM
B8 | 62 ± 13 nM
B9 | 21.1 ± 2.25 nM
B10 | 86 ± 34.5 nM
B11 | 2.11 ± 0.25 nM
B12 | 81 ± 22 nM
B13 | 13.1 ± 1.7 nM
B14 | 46.5 ± 6.5 nM
B15 | 11.1 ± 0.7 nM
B16 | 84 ± 24 nM

Binder | Kd
B17 | 19.9 ± 1.95 nM
B18 | 85.5 ± 24.5 nM
B19 | 47.5 ± 10.5 nM
B20 | 39.7 ± 3.65 nM
B21 | 73 ± 22.5 nM
B22 | 32 ± 6.1 nM
B23 | 74.5 ± 7 nM
B24 | 88 ± 21.5 nM
B25 | 7.04 ± 0.57 nM
B26 | 18 ± 1.85 nM
B27 | 16.3 ± 3 nM
B28 | 70.5 ± 13.5 nM
B29 | 65.5 ± 9 nM
B30 | 7.8 ± 0.7 nM
B31 | 8.4 ± 1.6 nM
B32 | 50 ± 10 nM
